Measurements published in the supplement of paper PMC12764529.
± gives the half width of the 95% confidence interval.

Experiments:
[1] = folding stability dG unfold from trypsin proteolysis; higher = more stable
Outline: (§1)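 Bayesian fitting of sequencing counts gave K50 for each design. Unfolding free energy followed by setting this against a sequence-predicted unfolded-state K50 and a shared folded-state K50, either per protease or with trypsin and chymotrypsin combined. The designs, under 80 residues and lacking cysteine, were digested in a PA-tagged cDNA display format at 11 threefold-diluted protease concentrations and without protease, and only those with AlphaFold2 dimer inter-PAE above 15 were kept.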

[2] = folding stability dG unfold from chymotrypsin proteolysis; higher = more stable
Outline: as §1

[3] = folding stability dG unfold (combined trypsin and chymotrypsin); higher = more stable
Outline: as §1

Row | Sequence | folding stability dG unfold [1] | folding stability dG unfold [2] | folding stability dG unfold [3]
1 | SAGGSAGGSAGMPLKVTVLSTSPLLESSELVTVKITPPDGSVVVIPSSVSLEEVEKLLLSSAGGSAGGSAGG [r17_353_JUSTAS] | 0.784 ± 0.024 kcal/mol | 0.05 ± 0.07 kcal/mol | 0.558 ± 0.051 kcal/mol
2 | SAGGSAGGSAGMPTLKIKVLVRNEETGEWQEVEIELPEGMTLEELLAALPPEQVERVEPVSAGGSAGGSAGG [r11_386_TrROS_Hall] | 2.42 ± 0.15 kcal/mol | 3.07 ± 0.059 kcal/mol | 2.85 ± 0.073 kcal/mol
3 | SAGGSAGGSAGMPVITVDVYEDDNTYTITITLSDGTPVVVTVTSPDTPVEEAVAAVIAALSAGGSAGGSAGG [r11_313_JUSTAS] | 3.45 ± 0.15 kcal/mol | 2.77 ± 0.16 kcal/mol | 3.16 ± 0.16 kcal/mol
4 | SAGGSAGGSAGMRIRAEVVEISPPGAVIVLRYEIEFPLPDDEPVRLEFDAVLYIPVPPEASAGGSAGGSAGG [r11_689_TrMRF] | 2.63 ± 0.12 kcal/mol | 4.16 ± 0.098 kcal/mol | 3.69 ± 0.13 kcal/mol
5 | SAGGSAGGSAGMRLVTFTVPGSAISVSTPGGATVVSVEKLPGDLVRVTVEIPEGAPPGLQSAGGSAGGSAGG [r17_48_JUSTAS] | 1.12 ± 0.013 kcal/mol | 1.76 ± 0.029 kcal/mol | 1.56 ± 0.046 kcal/mol
6 | SAGGSAGGSAGMSSVAPITTPDGKVAESVTVTEETLPNGEVVTKITTTLPDGTVVTTTLESAGGSAGGSAGG [r11_810_JUSTAS] | 1.59 ± 0.066 kcal/mol | 0.997 ± 0.051 kcal/mol | 1.3 ± 0.1 kcal/mol
7 | SAGGSAGGSAGMSVRVIEGDPALAKKFIEEHPDEIVSVEVTPHPETGTYTYVFVFKGPPKSAGGSAGGSAGG [r17_79_TrMRF] | 2.33 ± 0.086 kcal/mol | 2.44 ± 0.041 kcal/mol | 2.39 ± 0.091 kcal/mol
8 | SAGGSAGGSAGMTAKIVERRVLPGDGYLLLVEHPDGSRSAIVVPPELLENLDISDTVEFDSAGGSAGGSAGG [r11_943_TrMRF] | 0.576 ± 0.038 kcal/mol | 0.591 ± 0.026 kcal/mol | 0.598 ± 0.064 kcal/mol
9 | SAGGSAGGSAGMTIKVYDPKTGEKILEIEIDPSLTPEQLKALADELRKKLPPGARIEIVPSAGGSAGGSAGG [r11_1081_TrROS_Hall] | 4.56 ± 0.2 kcal/mol | 3.72 ± 0.088 kcal/mol | 4.38 ± 0.13 kcal/mol
10 | SAGGSAGGSAGMTVEDLEFDIPFESEEEAIEYLKKKLPKDYTIKPIGFEPENGKLKVKVTKKSAGGSAGGSA [r18_429_JUSTAS] | 0.485 ± 0.19 kcal/mol | 0.789 ± 0.15 kcal/mol | 0.8 ± 0.3 kcal/mol
11 | SAGGSAGGSAGMTVTETPVLVRYPEDGSVRPFTLTTSPEPGTLTLDLPPAEWPPLEITPPGSAGGSAGGSAG [r3_454_JUSTAS] | -0.0964 ± 0.12 kcal/mol | -0.486 ± 0.33 kcal/mol | -0.324 ± 0.17 kcal/mol
12 | SAGGSAGGSAGMVEVEVRKTENGNYVVTTTTVTTSPVTTPNPYTRTVTTVTTSTTVIPATSAGGSAGGSAGG [r11_403_JUSTAS] | -0.758 ± 0.3 kcal/mol | -0.101 ± 0.23 kcal/mol | -0.187 ± 0.39 kcal/mol
13 | SAGGSAGGSAGMVEVYSEPDGTVIVKETVPGKVVITVLEKVPGGPGLNPVTTTVVPPGLLSAGGSAGGSAGG [r11_844_JUSTAS] | 1.4 ± 0.037 kcal/mol | 0.786 ± 0.058 kcal/mol | 1.11 ± 0.043 kcal/mol
14 | SAGGSAGGSAGMVKSLSELLAENPDLSIEEIKAKLEKEGYKVEVKKEGDTPVVYIKKGKKSAGGSAGGSAGG [r11_707_JUSTAS] | 1.43 ± 0.04 kcal/mol | 0.765 ± 0.14 kcal/mol | 1.12 ± 0.16 kcal/mol
